Measurements: patent US7897569B2, “Use of HMGB fragments as anti-inflammatory agents” (The Feinstein Institute for Medical Research, priority 2001, dated 2011)

Test system: RAW 264.7 cells
Test: IL-6 release from RAW 264.7 cells (ELISA)
Assay type: cell-based, murine
Details: B box 0-10 μg/ml, 8 hours
Description: To further examine the effect of HMGB1 B box on cytokine production, varying amounts of HMGB1 B box were evaluated for the effects on TNF, IL-1 B, and IL-6 production in murine macrophage-like RAW 264.7 cells. Conditioned media were harvested and measured for TNF, IL-1β and IL-6 levels. TNF levels were measured as described herein, and IL-1β and IL-6 levels were measured using the mouse IL-1β and IL-6 enzyme-linked immunosorbent assay (ELISA) kits (R&D System Inc., Minneapolis, Minn.) and N>5 for all experiments.

B1: B box: Human HMGB1 mutant containing only the B box, SEQ ID NO:20 (protein)
chain: FKDPNAPKRLPSAFFLFCSEYRPKIKGEHPGLSIGDVAKKLGEMWNNTAADDKQPYEKKAAKLKEKYEKDIAAY
  IL-6 release, dose dependence: increased with increased amounts of B box
